This is an account of results in paper PMC10058814, “Identification of a Thermostable Levansucrase from Pseudomonas orientalis That Allows Unique Product Specificity at Different Temperatures” (Polymers, 2023).

Substrate in the data set: OC[C@H]1O[C@@](CO)(O[C@H]2O[C@H](CO)[C@@H](O)[C@H](O)[C@H]2O)[C@@H](O)[C@@H]1O
Nature of the data set: kinetics of glucose and fructose release; nonlinear Michaelis-Menten fit. The format is biochemical, Celerinatantimonas diazotrophica. Particulars: hydrolysis reaction; assay conditions for Cedi-LS not stated separately. The source says:
kinetics of glucose and fructose release; nonlinear Michaelis-Menten fit on Cedi-LS

B1: Cedi-LS (Celerinatantimonas diazotrophica) (protein)
chain: MTLQDKVMTTAWSRADALKVHADDPTTTQPEVSISFPTMDENLFIWDTLPLRTLDGSIVSVDGWSVIFTLTAIKDPETYKNADGSYDITTDWENRHGRARIYYWYAKDSKNWILGGRVMREGVSPTTREWAGTPILLNDQGDIELYYTCVTPGATIAKVRGKITTTENAVELSEFDHVTELFSADGFYYQTEEQNQFWNFRDPSPFIDPKDGRLYMVFEGNVAGNRGSHEITTTDMGDVPPGYSDVGGARYQAGCIGLAVATDTDGNNWQLLPPLITAVGVNDQTERPHFVFKDGKYYLFTISHKYTYADGLTGPDGVYGFVSDSLFGPYQPLNGSGLVLGNPSSQPFQTYSHCVMPNGLVTSFIDSVPSTSDDDYDGDYRIGGTEAPTVQIKLEGNQTFMVKEFDYGFIPPMKNIVLQ
notes: recombinant levansucrase from the authors' earlier work; construct not described here
In general, Km refers to the substrate concentration at which the rate is half of its maximum. A word on the kcat: it is the number of substrate molecules converted per active site and unit of time at saturation. The term kcat/Km denotes the turnover number divided by the Michaelis constant. As for B1, the Km was found to be 57 ± 2 mM, the kcat worked out at 332 ± 22 s⁻¹ and the kcat/Km came to 5800 M⁻¹ s⁻¹.
